Positions count from the first letter of the chain named.
Assays:
human placental laminin = target: T1, human placental laminin (human); experiment: ELISA; biotinylated laminin 5 µg/ml on streptavidin plate, neat eluted His-tagged protein, anti-pentaHis-HRP
T1 construct: Bought; also called human laminin; laminin-biotin
Method: Neat eluted proteins were tested for binding to their cognate antigen and BSA as a control antigen. Streptavidin-activated plates (Immobilizer, NUNC) were coated with biotinylated laminin at 5 μg/ml in PBS for 30 min at RT and blocked with 4% BSA-PBS for 1 h at RT. Eluted proteins were added in 2% BSA-PBS and allowed to bind for 1 h at RT. […] The reaction was stopped with the addition of H₂SO₄ and the absorbance read at 450/620 nm (Table 15).

human EGFR-Fc [1] = target: T2, human EGFR-Fc (human, UniProt P00533 25-645, biotinylated with EZ-Link Sulfo-NHS-LC-LC-Biotin in most assays); experiment: flow cytometry, HEK293-6E cell display (pDisplay)
T2 construct: Bought; also called Human EGFR-Fc-biotin; EGFR-Fc-biotin
Method: (§1) 1×10⁵ cells have been blocked in 2% BSA-PBS for 30 min on ice and then stained with each 500 nM biotinylated human EGFR-Fc, biotinylated human Her2/neu-Fc and biotinylated mouse EGFR-Fc for 30 min on ice in 2% BSA-PBS. […] Cells were then centrifuged at 300 g, 5 min at 4° C. and resuspended in 200 μl ice-cold PBS. […] The fluorescence has been determined with Guava EasyCyte flow cytometer.
(§2) 1×10⁵ cells have been blocked in 2% BSA-PBS for 30 min on ice and then stained with each 500 nM biotinylated human EGFR-Fc, biotinylated human Her2/neu-Fc and biotinylated mouse EGFR-Fc for 30 min on ice in 2% BSA-PBS. […] Cells were then centrifuged at 300 g, 5 min at 4° C. and re-suspended in 200 μl ice-cold PBS. […] The fluorescence has been determined with Guava EasyCyte flow cytometer.

mouse EGFR-Fc [2] = target: T3, mouse EGFR-Fc (mouse, UniProt Q01279 25-647, limits assumed, biotinylated with EZ-Link Sulfo-NHS-LC-LC-Biotin); experiment: flow cytometry, HEK293-6E cell display (pDisplay)
T3 construct: Bought; also called Mouse EGFR-Fc-biotin; biotinylated mouse EGFR-Fc
Method: as §1, §2

human EGFR-Fc [3] = target: T2, human EGFR-Fc; experiment: HEK293-6E cell display flow cytometry; 500 nM biotinylated antigen + streptavidin-Alexa Fluor 647; secondary only 2.67
Method: as §2

human Her2/neu-Fc [4] = target: T4, human Her2/neu-Fc (human, UniProt P04626 23-652, biotinylated with EZ-Link Sulfo-NHS-LC-LC-Biotin); experiment: as above
T4 construct: Bought; also called Human Her2/neu-Fc-biotin; biotinylated human Her2/neu-Fc
Method: as §2

mouse EGFR-Fc [5] = target: T3, mouse EGFR-Fc; experiment: as above
Method: as §2

mouse EGFR-Fc [6] = target: T3, mouse EGFR-Fc; experiment: yeast display flow cytometry; mouse EGFR-Fc + streptavidin-Alexafluor 647
human EGFR-Fc [7] = target: T2, human EGFR-Fc; experiment: HEK293-6E cell display flow cytometry; 500 nM biotinylated antigen + streptavidin-Alexa Fluor 647; secondary only 14.11
Method: as §2

human Her2/neu-Fc [8] = target: T4, human Her2/neu-Fc; experiment: as above
Method: as §2

mouse EGFR-Fc [9] = target: T3, mouse EGFR-Fc; experiment: as above
Method: as §2

human EGFR-Fc [10] = target: T2, human EGFR-Fc; experiment: HEK293-6E cell display flow cytometry; 500 nM biotinylated antigen + streptavidin-Alexa Fluor 647; secondary only 14.11 (same values as in Table 12)
Method: as §2

human Her2/neu-Fc [11] = target: T4, human Her2/neu-Fc; experiment: as above
Method: as §2

mouse EGFR-Fc [12] = target: T3, mouse EGFR-Fc; experiment: as above
Method: as §2

human Her2/neu-Fc [13] = target: T4, human Her2/neu-Fc; experiment: flow cytometry, HEK293-6E cell display (pDisplay)
Method: as §1, §2

human EGFR-Fc [14] = target: T2, human EGFR-Fc; experiment: HEK293-6E cell display flow cytometry; 500 nM biotinylated antigen + streptavidin-Alexa Fluor 647; secondary only 5.82
Method: as §1

human Her2/neu-Fc [15] = target: T4, human Her2/neu-Fc; experiment: as above
Method: as §1

mouse EGFR-Fc [16] = target: T3, mouse EGFR-Fc; experiment: as above
Method: as §1

[17] = target: T5, streptavidin-Alexafluor 647 (UniProt P22629 37-163, limits assumed, Alexa Fluor 647 conjugate); experiment: yeast display flow cytometry, secondary reagent only
T5 construct: Secondary detection reagent, tested alone as a control; also called secondary reagent; 2nd

mouse EGFR-Fc [18] = target: T3, mouse EGFR-Fc; experiment: yeast display flow cytometry, clone 9
[19] = target: T5, streptavidin-Alexafluor 647; experiment: yeast display flow cytometry; secondary reagent only

T5 sequence (P22629 37-163 limits assumed): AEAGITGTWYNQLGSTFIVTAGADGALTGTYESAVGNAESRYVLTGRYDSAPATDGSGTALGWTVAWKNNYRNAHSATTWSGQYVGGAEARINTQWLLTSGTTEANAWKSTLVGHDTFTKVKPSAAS

B1: laminin-binding CD81 LEL mutant L3B_LU1_2 (designed binder)
chain: FVNKDQIAKDVKQFYDQCLKYACKQGDWENAKACVKTFHETLDCCGSSTVANMTRCVLPANLCPSGSNIISNLFKEDCHQKIDDLFSGK
A450/620 (average) (human placental laminin): 1.32

B2: anti-Her2/neu directed CD81 LEL clone 81_H2_11 (designed binder)
chain: FVNKDQIAKDVKQFYDQALVNCCYTRAANNACAVVKTFHETLDCCGSSTHYVDTHCVLNRNLCPSGSNIISNLFKEDCHQKIDDLFSGK
notes: also called anti-Her2/neu clone
binding result (human EGFR-Fc [1]): no binding (tested: 500 nM) | binding result (mouse EGFR-Fc [2]): no binding (tested: 500 nM) | % antigen binding cells (human EGFR-Fc [3]): 5.16% | % antigen binding cells (human Her2/neu-Fc [4]): 44.2% | % antigen binding cells (mouse EGFR-Fc [5]): 5.68%

B3: wild-type human CD81 LEL (other)
chain: FVNKDQIAKDVKQFYDQALQQAVVDDDANNAKAVVKTFHETLDCCGSSTLTALTTSVLKNNLCPSGSNIISNLFKEDCHQKIDDLFSGK
notes: the formats are named in the assay field; The soluble form runs as a dimer in SEC; also called wild-type CD81 LEL; hCD81 LEL
median fluorescence (mouse EGFR-Fc [6]): 9.1 | % antigen binding cells (human EGFR-Fc [7]): 10.4% | % antigen binding cells (human Her2/neu-Fc [8]): 10.5% | % antigen binding cells (mouse EGFR-Fc [9]): 12.8% | % antigen binding cells (human EGFR-Fc [10]): 10.4% | % antigen binding cells (human Her2/neu-Fc [11]): 10.5% | % antigen binding cells (mouse EGFR-Fc [12]): 12.8%

B4: EGFR-specific CD81 LEL binder L2B_EU1_1 (designed binder)
chain: FVNKDQIAKDVKQFYDQALWWCCVLYKANNACAVVKTFHETLDCCGSSTGRSHTACVLKGNLCPSGSNIISNLFKEDCHQKIDDLFSGK
notes: also called L2BE1_1
binding result (human Her2/neu-Fc [13]): no binding (tested: 500 nM) | % antigen binding cells (human EGFR-Fc [14]): 71.1% | % antigen binding cells (human Her2/neu-Fc [15]): 8.17% | % antigen binding cells (mouse EGFR-Fc [16]): 89.3%

B5: laminin-binding CD81 LEL mutant L3A_LU1 (designed binder)
chain: FVNKDQIAKDVKQFYDQCLLWACSKRYKYNAKACVKTFHETLDCCGSSTMGNLTECVLIENLCPSGSNIISNLFKEDCHQKIDDLFSGK
A450/620 (average) (human placental laminin): 1.7

B6: CD81 LEL library 1 variant RAN / IWRARRRRS (yeast clones 3, 13, 21 of the mouse EGFR-Fc selection) (designed binder)
chain: FVNKDQIAKDVKQFYDQALQQAVVDDDANNAKAVVKTFHETLDCCGSRANTALTTSVLKNNLCPSGSNIWRARRRRSCHQKIDDLFSGK
notes: also called clone 3; clone 13
binding result [17]: no binding

B7: CD81 LEL library 1 variant VRR / RRPRKRTRS (yeast clones 1, 8, 15 of the mouse EGFR-Fc selection) (designed binder)
chain: B6 chain with R48V, A49R, N50R, I69R, W70R, R71P, A72R, R73K, R75T
notes: also called clone 1; clone 8
binding result [17]: no binding

B8: CD81 LEL library 1 variant SSS / SRRWRHRIA (yeast clones 6, 18 of the mouse EGFR-Fc selection) (designed binder)
chain: B6 chain with R48S, A49S, N50S, I69S, W70R, A72W, R74H, R76I, S77A
notes: also called clone 6; clone 18
binding result [17]: no binding

B9: CD81 LEL library 1 variant SFS / RRFRKRPGD (yeast clones 5, 19 of the mouse EGFR-Fc selection) (designed binder)
chain: B3 chain with T49F, L50S, I69R, I70R, S71F, N72R, L73K, F74R, K75P, E76G
notes: also called clone 5; clone 19
binding result [17]: no binding

B10: CD81 LEL library 1 variant MGN / WWGRRFRVS (yeast clone 9 of the mouse EGFR-Fc selection) (designed binder)
chain: B6 chain with R48M, A49G, I69W, R71G, A72R, R74F, R76V
binding result (mouse EGFR-Fc [18]): no binding | median fluorescence [19]: 14.6 | median fluorescence (mouse EGFR-Fc [6]): 11.8

B11: CD81 LEL library 1 variant ERL / RRSRRRVHD (yeast clones 2, 4, 7, 10, 11, 12, 14, 16, 17, 20, 22, 23 of the mouse EGFR-Fc selection) (designed binder)
chain: B3 chain with S48E, T49R, I69R, I70R, N72R, L73R, F74R, K75V, E76H
notes: also called clone 2; clone 4
binding result [17]: no binding

B12: laminin-binding CD81 LEL mutant L2A_LU1 (designed binder)
chain: FVNKDQIAKDVKQFYDQALRECCNTFDANNACAVVKTFHETLDCCGSSTTHSSTGCVLFFNLCPSGSNIISNLFKEDCHQKIDDLFSGK
A450/620 (average) (human placental laminin): 0.156

From US20210395725A1 (EVERCYTE, published 2021)
